Data from patent US20250353917A1 (SYSTIMMUNE, published 2025).
Changes are numbered by the printed parent chain.

B1: SI-79SF5 (Fc fusion)
chain: DIVLTQSPSSLSVSPGERVTISCRASQSIGTNIHWYQQKPGQAPRLLIKYASESISGIPSRFSGSGSGTDFTLTISSVESEDFAVYYCQQNNNWPTTFGQGTKLEIKGGGGSGGGGSGGGGSGGGGSQVQLVESGPGLVQPSGSLSLTCTVSGFSLTNYGVHWVRQAPGKGLEWVGVIWSGGNTDYNTPFTSRFTISKDNSKNQVYLKMNSLRAEDTAVYYCARALTYYDYEFAYWGQGTLVTVSSGSGGSPVAGPSVFLFPPKPKDTLMISRTPEVTCVVVDVSHEDPEVKFNWYVDGVEVHNAKTKPREEQYASTYRVVSVLTVLHQDWLNGKEYKCKVSNKALPAPIEKTISKAKGQPREPQVYTLPPSRDELTKNQVSLRCHVKGFYPSDIAVEWESNGQPENNYKTTKPVLDSDGSFFLYSTLTVDKSRWQQGNVFSCSVLHEALHNHYTQKSLSLSPGK
notes: also called H8; H8 scFv-monoFc
B2: SI-79SF7 (Fc fusion)
chain: B1 chain with E105T, I106V, K107L
notes: also called H9; H9 scFv-monoFc
B3: SI-79SF9 (Fc fusion)
chain: EIVLTQSPSTLSVSPGERVSFSCRASQSIGTNIHWYQQRTGQPPRLLIKYASESISGIPARFSGSGSGTEFTLTITSVQSEDFAVYYCQQNNNWPTTFGQGTKLDIKGGGGSGGGGSGGGGSGGGGSQVQLLQSGPGLVKPSETLSITCTVSGFSLTNYGVHWIRQAPGKGLEWIGVIWSGGNTDYNTPFTSRFTITKDNSKNQVFFKLRSVRAEDTALYYCARALTYYDYEFAYWGQGTLVTVSSGSGGSPVAGPSVFLFPPKPKDTLMISRTPEVTCVVVDVSHEDPEVKFNWYVDGVEVHNAKTKPREEQYASTYRVVSVLTVLHQDWLNGKEYKCKVSNKALPAPIEKTISKAKGQPREPQVYTLPPSRDELTKNQVSLRCHVKGFYPSDIAVEWESNGQPENNYKTTKPVLDSDGSFFLYSTLTVDKSRWQQGNVFSCSVLHEALHNHYTQKSLSLSPGK
notes: also called H6; H6 scFv-monoFc
B4: SI-79SF8 (Fc fusion)
chain: DIVLTQSPATLSVSPGERATLSCRASQSIGTNIHWYQQKPGQAPRLLIKYASESISGIPSRFSGSGSGTDFTLTISSVQSEDFAVYYCQQNNNWPTTFGQGTKLEIKGGGGSGGGGSGGGGSGGGGSQVQLQESGPGLVKPSESLSLTCTVSGFSLTNYGVHWVRQPPGKGLEWIGVIWSGGNTDYNTPFTSRVTISKDNSKNQVSLKMNSLTAADTAVYYCARALTYYDYEFAYWGQGTLVTVSSGSGGSPVAGPSVFLFPPKPKDTLMISRTPEVTCVVVDVSHEDPEVKFNWYVDGVEVHNAKTKPREEQYASTYRVVSVLTVLHQDWLNGKEYKCKVSNKALPAPIEKTISKAKGQPREPQVYTLPPSRDELTKNQVSLRCHVKGFYPSDIAVEWESNGQPENNYKTTKPVLDSDGSFFLYSTLTVDKSRWQQGNVFSCSVLHEALHNHYTQKSLSLSPGK
notes: also called H10; H10 scFv-monoFc
B5: SI-79SF13 (Fc fusion)
chain: B4 chain with E105T, I106V, K107L
notes: also called H11; H11 scFv-monoFc
B6: SI-79SF4 (Fc fusion)
chain: EIVLTQSPSTLSVSPGERATFSCRASQSIGTNIHWYQQKPGKPPRLLIKYASESISGIPDRFSGSGSGTEFTLTISSVQSEDFAVYYCQQNNNWPTTFGPGTKLELKGGGGSGGGGSGGGGSGGGGSQVQLQQSGPGLVKPSETLSITCTVSGFSLTNYGVHWIRQAPGKGLEWLGVIWSGGNTDYNTPFTSRFTITKDNSKNQVYFKLRSVRADDTAIYYCARALTYYDYEFAYWGQGTLVTVSSGSGGSPVAGPSVFLFPPKPKDTLMISRTPEVTCVVVDVSHEDPEVKFNWYVDGVEVHNAKTKPREEQYASTYRVVSVLTVLHQDWLNGKEYKCKVSNKALPAPIEKTISKAKGQPREPQVYTLPPSRDELTKNQVSLRCHVKGFYPSDIAVEWESNGQPENNYKTTKPVLDSDGSFFLYSTLTVDKSRWQQGNVFSCSVLHEALHNHYTQKSLSLSPGK
notes: also called H4; H4 scFv-monoFc
B7: SI-79SF10 (Fc fusion)
chain: EIVLTQSPSILSVSPGERVTFSCRASQSIGTNIHWYQQRPGKPPRLLIKYASESISGIPARFSGSGSGTEFTLTISSVQSEDFATYYCQQNNNWPTTFGPGTKLELKGGGGSGGGGSGGGGSGGGGSQVQLVQSGPGLVKPSQTLSLTCTVSGFSLTNYGVHWIRQAPGKGLEWLGVIWSGGNTDYNTPFTSRFTITKDNSKNQVYFKLRSVRSEDTAVYYCARALTYYDYEFAYWGQGTLVTVSSGSGGSPVAGPSVFLFPPKPKDTLMISRTPEVTCVVVDVSHEDPEVKFNWYVDGVEVHNAKTKPREEQYASTYRVVSVLTVLHQDWLNGKEYKCKVSNKALPAPIEKTISKAKGQPREPQVYTLPPSRDELTKNQVSLRCHVKGFYPSDIAVEWESNGQPENNYKTTKPVLDSDGSFFLYSTLTVDKSRWQQGNVFSCSVLHEALHNHYTQKSLSLSPGK
notes: also called H3; H3 scFv-monoFc
B8: SI-79SF12 (Fc fusion)
chain: B6 chain with T10I, K39R, D60S, S76T, F83I, E143Q, T197S, V212L, D215E
notes: also called H2; H2 scFv-monoFc
B9: SI-79SF6 (Fc fusion)
chain: B6 chain with E105T, L106V, K107L
notes: also called H7; H7 scFv-monoFc
B10: SI-79C3 (antibody, human IgG1, kappa, V domains shown)
VH: QVQLQQSGPGLVKPSETLSITCTVSGFSLTNYGVHWIRQAPGKGLEWLGVIWSGGNTDYNTPFTSRFTITKDNSKNQVYFKLRSVRADDTAIYYCARALTYYDYEFAYWGQGTLVTVSS
VL: EIVLTQSPSTLSVSPGERATFSCRASQSIGTNIHWYQQKPGKPPRLLIKYASESISGIPDRFSGSGSGTEFTLTISSVQSEDFAVYYCQQNNNWPTTFGPGTKLTVLR
notes: Humanized version H7 in IgG format; also called H7; humanized H7 mAb
B11: SI-79SF11 (Fc fusion)
chain: EIQLTQSPSTLSVSPGERATFSCRASQSIGTNIHWYQQKTGQPPRLLIKYASESISGIPDRFSGSGSGTEFTLSITSVQSEDFAVYYCQQNNNWPTTFGPGTKLEILGGGGSGGGGSGGGGSGGGGSQVQLLQSGPGLVKPSETLSLTCTVSGFSLTNYGVHWIRQAPGKGLEWIGVIWSGGNTDYNTPFTSRFTISKDNSKNQVYFKLRSLTSEDTAIYYCARALTYYDYEFAYWGQGTLVTVSSGSGGSPVAGPSVFLFPPKPKDTLMISRTPEVTCVVVDVSHEDPEVKFNWYVDGVEVHNAKTKPREEQYASTYRVVSVLTVLHQDWLNGKEYKCKVSNKALPAPIEKTISKAKGQPREPQVYTLPPSRDELTKNQVSLRCHVKGFYPSDIAVEWESNGQPENNYKTTKPVLDSDGSFFLYSTLTVDKSRWQQGNVFSCSVLHEALHNHYTQKSLSLSPGK
notes: also called H5; H5 scFv-monoFc
B12: SI-79SF3 (Fc fusion)
chain: EIVMTQSPSTLSASVGDRVIITCRASQSIGTNIHWYQQKPGKAPKLLIYYASESISGIPSRFSGSGSGAEFTLTISSLQPDDFATYYCQQNNNWPTTFGQGTKLTVLGGGGSGGGGSGGGGSGGGGSEVQLVESGGGLVQPGGSLRLSCKVSGFSLTNYGVHWVRQAPGKGLEWVGVIWSGGNTDYNTPFTSRFTISRDTSKNTVYLQMNSLRAEDTAVYYCARALTYYDYEFAYWGQGTLVTVSSGSGGSPVAGPSVFLFPPKPKDTLMISRTPEVTCVVVDVSHEDPEVKFNWYVDGVEVHNAKTKPREEQYASTYRVVSVLTVLHQDWLNGKEYKCKVSNKALPAPIEKTISKAKGQPREPQVYTLPPSRDELTKNQVSLRCHVKGFYPSDIAVEWESNGQPENNYKTTKPVLDSDGSFFLYSTLTVDKSRWQQGNVFSCSVLHEALHNHYTQKSLSLSPGK
notes: also called H1; H1 scFv-monoFc

What was measured:
[1] = target: T1, soluble recombinant extracellular domain of human EGFR (human, UniProt P00533 25-645); assay: BLI of scFv-monoFc proteins, against wild-type cetuximab scFv-monoFc
T1 construct: extracellular domain
Description: (§1) Fc-containing protein was captured to anti-human Fc (AHC) sensor tips by loading for 180 seconds at 10 μg/ml. Alternatively, His-tagged proteins were covalently coupled at 10 ug/ml to AR2G tips using manufacturer protocol. After a 60-second baseline step, a 180- to 300-second association phase with serial dilutions (0-200 nM; 1:2.5 dilution factor) or a single 100 nM concentration of purified human EGFR in assay buffer (phosphate-buffered saline containing 0.1% BSA, 0.05% Tween20) was performed, followed by a 300- to 600—second dissociation phase in assay buffer. Regeneration was achieved using 10 mM glycine, pH 1.5. Binding curves were globally fit to a 1:1 model to extract the dissociation constants, KD. Binding kinetics for each protein were assessed in duplicate, with tabulated values reported as average±standard deviation.
(§2) The monoFc domain was used to load proteins onto anti-human Fc (AHC) sensors, followed by binding of scFv to serial dilutions of the extracellular domain of human EGFR.

[2] = target: T1, soluble recombinant extracellular …; assay: BLI (Octet), scFv-monoFc on AHC sensors, serial dilutions of EGFR extracellular domain;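 note: EGFR analyte titrated 0 to 200 nM, association 180–300 s then dissociation 300–600 s in PBS with 0.1% BSA and 0.05% Tween20, global 1:1 fit, duplicate means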
Description: as §1, §2

[3] = target: T1, soluble recombinant extracellular …; assay: BLI (Octet), mAb on AHC sensors, soluble EGFR extracellular domain
Description: as §1

Row | Binder | fold decrease in binding affinity [1] | Kd [2] | koff [2] | kon [2] | Kd [3] | koff [3] | kon [3]
1 | B1 | 2 fold | 6.79 nM | 0.00393 s⁻¹ | 571000 M⁻¹ s⁻¹ | – | – | –
2 | B2 | 2 fold | 6.92 nM | 0.00395 s⁻¹ | 563000 M⁻¹ s⁻¹ | – | – | –
3 | B3 | – | 3.42 nM | 0.00165 s⁻¹ | 476000 M⁻¹ s⁻¹ | – | – | –
4 | B4 | 2 fold | 6.77 nM | 0.00458 s⁻¹ | 665000 M⁻¹ s⁻¹ | – | – | –
5 | B5 | 2 fold | 6.74 nM | 0.00454 s⁻¹ | 661000 M⁻¹ s⁻¹ | – | – | –
6 | B6 | – | 3.05 nM | 0.00139 s⁻¹ | 450000 M⁻¹ s⁻¹ | – | – | –
7 | B7 | – | 3.45 nM | 0.00177 s⁻¹ | 504000 M⁻¹ s⁻¹ | – | – | –
8 | B8 | – | 3.08 nM | 0.00151 s⁻¹ | 481000 M⁻¹ s⁻¹ | – | – | –
9 | B9 | – | 3.14 nM | 0.00143 s⁻¹ | 447000 M⁻¹ s⁻¹ | – | – | –
10 | B10 | – | – | – | – | 2.41 nM | 0.000812 s⁻¹ | 337000 M⁻¹ s⁻¹
11 | B11 | – | 2.27 nM | 0.0011 s⁻¹ | 474000 M⁻¹ s⁻¹ | – | – | –
12 | B12 | 4 fold | 13.1 nM | 0.00927 s⁻¹ | 718000 M⁻¹ s⁻¹ | – | – | –
